The source of these data is patent publication US11312760 (NEWSOARA BIOPHARMA, dated 2022).

This experiment has as its target authentic SARS-CoV-2 (live virus). The experiment in a line: cell-based or functional assay.

B1: Antibody 15A7 (recombinantly expressed in IgG1 form) (antibody, V domains shown)
VH: QVQLVQSGAEVKKPGASVKVSCKASGYTFTSYDINWVRQASGQGLEWMGWMNPNSANPGYAQKFQGRVTMTRNTSISTAFMELSSLRSDDTAVYYCARARVTIHYDILTGYYSNAFDIWGQGTMVAVSS
VL: DIQMTQSPSSLSASVGDRVTITCRASQTISSYLNWYQQKPGKAPKLLIYAASSLQSGVPSRFSGSGSGADFTLTISSLQPEDFATYYCQQSYTTFMYTFGQGTMLEIK
Regarding B1, the “EC50 of neutralization of live virus in Vero-E6 cells” value (“EC50 of neutralization of live virus” for short) was 0.61 µg/mL.

B2: Antibody 37G2 (recombinantly expressed in IgG1 form) (antibody, V domains shown)
VH: QVQLVQSGAEVKKPGSSVKVSCKASGGTFSSYAITWVRQAPGQGLEWMGGIIPIFGTANFAQKFQGRVTITADESTSTAYMELSSLRSEDTAVYYCAHLGGFADPFDYWGQGTLVTVSS
VL: EIVLTQSPATLSLSPGERATLSCRASQSVSNYLAWYQQKAGQAPRVLIYDAFNRATGIPARFSGSGSGTDFTLTISSLEPEDFAVYYCQQRSNWPPRITFGQGTRLEIK
For B2, the “EC50 of neutralization of live virus” value stood at 1.37 µg/mL.

B3: Antibody 31C2 (recombinantly expressed in IgG1 form) (antibody, V domains shown)
VH: QVQLVQSGAEVKKPGSSVKVSCKASGGTFSSYAISWVRQAPGQGLEWMGGIIPIFGTTNYAQKFQGRVTITADESTSTAYMELNSLRSEDTAVYYCAGRSAYGDKGYYFDYWGQGTLVTVSS
VL: EIVLTQSPATLSLSPGERATLSCRASQSVSNFLAWYQQKPGQAPRLLIYDASNRATGIPARFSGSGSGTDFTLTISSLQPEDFAVYYCQQRSNWPPQETFGQGTKVEIK
Consider B3, for which the “EC50 of neutralization of live virus” value came to 0.57 µg/mL.
